{"source": "the DeepSol protein solubility set"}
{"assay": "soluble on expression in E. coli; label from the status in PepcDB or PDB records"}
{"sequence": "MSEEGFMLAVLKGIPLIQDIRAEGNSRSWIMTIDGHPARGEIFSEAFSISLFLNDLESLPKPCLAYVTLLLAAHPDVHDYAIQLTADGGWLNGYYTTSSSSELIAIEIEKHLALTCILKNVIRNHHKLYSGGV", "soluble on expression in E. coli": "not soluble"}
{"sequence": "MSEGPKKAGVLGSPIAHSRSPQLHLAAYRALGLHDWTYERIECGAAELPVVVGGFGPEWVGVSVTMPGKFAALRFADERTARADLVGSANTLVRTPHGWRADNTDIDGVAGALGAAAGHALVLGSGGTAPAAVVGLAELGVTDITVVARNSDKAARLVDLGTRVGVATRFCAFDSGGLADAVAAAEVLVSTIPAEVAAGYAGTLAAIPVLLDAIYDPWPTPLAAAVGSAGGRVISGLQMLLHQAFAQVEQFTGLPAPREAMTCALAALD", "soluble on expression in E. coli": "not soluble"}
{"sequence": "MSEISAIWERIEAWHAANDQTENLNPGATAEALAQAEKDMGLTFPPEMRESLLRHDGSVDDSWPTGELLSLERMADERKVWMDLLQDGTFDGNASHNESSEALQPGWWNPAWIPLDADGGGNGAVIDLAPGPQGTVGQVIDMDHEVGPSGPKYVSLAAYLEAMLERLSEAEE", "soluble on expression in E. coli": "soluble"}
{"sequence": "MSEKFEHYYTVEPTSKLKVREARLVLKNGHEYIFKTPSGVYSYGKIDKATQVLLENLKVHGKKVLDLGCGYGVIGIVLKKEYPDLEVYMSDINKRAVEFAKINAKDHNVEVDIRWGNLYEPWEDMKFDMIVCNPPIVAGKKVWMEIVKSAPEFLEEGGSLQIVAYHNKGGRRIRDFMKEVFGNVEELCKTGGIRVYRSVKGLKEDEDNAE", "soluble on expression in E. coli": "not soluble"}
{"sequence": "MSEKIRVLLYYKYVSIENAQEYAAKHLEFCKSIGLKGRILIADEGINGTVSGDYETTQKYMDWVHSDERFADLWFKIDEENQQAFRKMFVRYKKEIVHLGLEDNNFDSDINPLETTGEYLNPKQFKEALLDEDTVVLDTRNDYEYDLGHFRGAIRPDIRNFRELPQWVRDNKDKFMEKRVVVYCTGGVRCEKFSGWMVREGFKDVGQLHGGIATYGKDPEVQGELWDGAMYVFDDRISVPINHVNPTVISKDYFDGTPCERYVNCANPFCNKQIFASEENETKYVRGCSPECRAHERNRYVQENGLSRQEWAERLEAIGESLPEFVGA", "soluble on expression in E. coli": "not soluble"}
{"sequence": "MSEKLKIVYRPLQELSPYAHNARTHSTEQVAQLVESIKQFGWTNPVLIDEKGEIIAGHGRVMAAEMLKMDSVPVIVLSGLTDEQKQR", "soluble on expression in E. coli": "soluble"}
{"sequence": "MSEKTYELATFAGGCFWCMVKPFDELPDIHKVLSGYAGGHVENPTYEQVKAGTSGHLEVVQITFDPSIFPYEKLLNLYWPQIDPTDDGGQFFDRGPSYRTAIFYHTETQKELAEKSKHSLAESGMFKDPIVTEIRPAAPFYEAEEYHQHFYKKNPEKYATEQKESGREDFIKENWQKK", "soluble on expression in E. coli": "not soluble"}
{"sequence": "MSELRVISLDEVSKHNWEDADQSCWIVISGKVYDVTKFLNEHPGGEEVITQLAGKDATVGFLDVGHSKDAIEMANEYLIGQLPESDVPKVETAAAKPSKNEKSSSLLNDFTEIMTSPTWTNFLIPTTMGLVIYAVYKCMFN", "soluble on expression in E. coli": "not soluble"}
{"sequence": "MSENIRESISAKTLSKDQMETSYVSLKTWIEDSLDLFKNDLLPLLYPLFIHIYFDLIQQNKTDEAKEFFEKYRGDHYNKSEEIKQFESIYTVQHIHENNFAYTFKNSKYHLSMGRYAFDLLINFLEERNLTYILKILNQHLDIKVYVGPKSEERPQGIETSVVDAEIDLTTFLVSRECEDAILGDEQYRYDHLETYVLQLRKQREMKPKDSVYKPNASQIHAEIEKLKDLCKRVAVNKNNLPSICCYTIHNTYEGLTAAEISNDLKLMACGFKDSYVEVYSLTNESLKKLKSSSELAKSDIKTLNEEKFEEVGSSYKLVGHSGPVYGLKFFSSNKFLVSSSQDCTVCLWSLDLLCLLAVYKAHAFPVWCVDVAPNDYFFASGAGDRQAIVWSVMTSKPERLIISSLSDVTAVKFHPNSSYLFTGSSDHRVRMHDISTASVVRIFCGHTDTVTCMDVSHCGKFLASGSKDRTVLLWDIQSSKLLGKYVGHENTVFSVSFCFYGSVLASCGADNSVRLWDRTDHKGGCLGTYYTKNTPLLCVKFGYRNIISCTGPFIS", "soluble on expression in E. coli": "soluble"}
{"sequence": "MSEQKQDVAATEEQQPVLQIQRIYVKDVSFEAPNLPHIFQQEWKPKLGFDLSTETTQVGDDLYEVVLNISVETTLEDSGDVAFICEVKQAGVFTISGLEDVQMAHCLTSQCPNMLFPYARELVSNLVNRGTFPALNLSPVNFDALFVEYMNRQQAENAEEKSEEEQTKH", "soluble on expression in E. coli": "soluble"}
{"sequence": "MSEQTVQVKTTGKILQSPCGPIIHGLEDVLIKSTSISDIDGEKGILWYRGYRIEELARLSTYEEVSYLILYGRLPTKRELEDYINRMKKYRELHPATVEVIRNLAKAHPMFALEAAVAAEGAYDEDNQKLIEALSVGRYKAEEKELAYRIAEKLVAKMPTIVAYHYRFSRGLEVVRPRDDLGHAANFLYMMFGREPDPLASRGIDLYLILHADHEVPASTFAAHVVASTLSDLYSSVAAAIAALKGPLHGGANEMAVRNYLEIGTPAKAKEIVEAATKPGGPKLMGVGHRVYKAYDPRAKIFKEFSRDYVAKFGDPQNLFAIASAIEQEVLSHPYFQQRKLYPNVDFWSGIAFYYMGIPYEYFTPIFAMSRVVGWVAHVLEYWENNRIFRPRACYIGPHDLQYIPLEQR", "soluble on expression in E. coli": "soluble"}
{"sequence": "MSESLRNTITKIVVEKIRCKSLMFMPSHVCATFPFNTQNALVVDIGHSECIAVPIIEGVTMLNEFESARSICGRQLERRVREQMEKYGQIAELNGERRAITENDWQDIDACKLIETLSLSLICLDKERAENWTKWEASEEGEKPDIETLCKERLFPNNGKIFVVPPVVFETSTEIFFNENLNPTSFDLSLPKLLHKLVSKCPIDLRKKLFPNILLTGGVSTIPGLMKRLEQEIQVIDEKNNSKIAVIVKFYQFSEIKNTPLFVSWLGASLLGSLRETIERKSLTLEEWKNGKLAADWTDIIVKSR", "soluble on expression in E. coli": "not soluble"}
{"sequence": "MSEVTNELMKTIGGLAKNPNFYLMMGPHHRGQRGHHRGQARLMHLLEKYDGLSVGEIAEILDVRPSSVTSLVDKLEENDFVERIVDEIDKRITLIKLTKKGHAFLKNKKDEADDLSEEIFARLSEEEKDTLLRLLKRVSENLNDVDFGDYISKMVNDSIGRHFKFDDGDIHINI", "soluble on expression in E. coli": "not soluble"}
{"sequence": "MSEYREIITKAVVAKGRKFTQCTNTISPEKKPSSILGGWIINHKYDAEKIGKTVEIEGYYDINVWYSYADNTKTEVVTERVKYVDVIKLRYRDNNYLDDEHEVIAKVLQQPNCLEVTISPNGNKIVVQAEREFLAEVVGETKVVVEVNPDWEEDDEEDWEDELDEELEDINPEFLVGDPEELEHHHHHH", "soluble on expression in E. coli": "soluble"}
{"sequence": "MSFAIEIVIKAPMDIVCDYIIEDEKIKEWNTFIIENRYPSNMDKENPRVGDKYITVQKVGKKIFEAEVEILEYDAPHIISLGSEMKQGYSAMTYMLEEDEEGTALTLISEYEPSNFYYKMMYKLTGWISRGLTMEQMERLAECVEAAYHKEDLEHHHHHH", "soluble on expression in E. coli": "not soluble"}
{"sequence": "MSFDAKSLQQVREQVAARLRLDAGRPWLMVHAGSGGSANNLSIEQYARLIIKLNQACPELQCILTAGPGEERIAEQLAAELLAHGGNGWIYRSDEGLPKFCQVMANAALFVAGSTGPLHIAAALDVPTIGFFPAHRSATPLRWRPLNSEGRHLAFSPPEDSDHPEDMSQLDPKTMAAAIARWAPPFWRTEHLEHHHHHH", "soluble on expression in E. coli": "soluble"}
{"sequence": "MSFLISFDKSKKHPAHLQLANNLKIALALEYASKNLKPEVDNDNAAMELRNTKEPFLLFDANAILRYVMDDFEGQTSDKYQFALASLQNLLYHKELPQQHVEVLTNKAIENYLVELKEPLTTTDLILFANVYALNSSLVHSKFPELPSKVHNAVALAKKHVPRDSSSFKNIGAVKIQADLTVKPKDSEILPKPNERNILITSALPYVNNVPHLGNIIGSVLSADIFARYCKGRNYNALFICGTDEYGTATETKALEEGVTPRQLCDKYHKIHSDVYKWFQIGFDYFGRTTTDKQTEIAQHIFTKLNSNGYLEEQSMKQLYCPVHNSYLADRYVEGECPKCHYDDARGDQCDKCGALLDPFELINPRCKLDDASPEPKYSDHIFLSLDKLESQISEWVEKASEEGNWSKNSKTITQSWLKDGLKPRCITRDLVWGTPVPLEKYKDKVLYVWFDATIGYVSITSNYTKEWKQWWNNPEHVSLYQFMGKDNVPFHTVVFPGSQLGTEENWTMLHHLNTTEYLQYENGKFSKSRGVGVFGNNAQDSGISPSVWRYYLASVRPESSDSHFSWDDFVARNNSELLANLGNFVNRLIKFVNAKYNGVVPKFDPKKVSNYDGLVKDINEILSNYVKEMELGHERRGLEIAMSLSARGNQFLQENKLDNTLFSQSPEKSDAVVAVGLNIIYAVSSIITPYMPEIGEKINKMLNAPALKIDDRFHLAILEGHNINKAEYLFQRIDEKKIDEWRAKYGGQQV", "soluble on expression in E. coli": "not soluble"}
